Data taken from patent US20110054149A1 (published 2011).

What was measured:
GST-human NOGO-A56 [1] = target: T1, GST-human NOGO-A56 (human, UniProt Q9NQC3 586-785); assay: SPR off-rate ranking (Biacore), CHO-K1 transfection supernatant over GST-human NOGO-A56 chip; mean (SD) of three experiments
T1 construct: also called hNOGO; recombinant human NOGO; not shown: Glutathione S-transferase (GST) tag encoded by vector pGEX-6P1, N-terminal to the NOGO-A fragment; the tag and linker se
T1 sequence: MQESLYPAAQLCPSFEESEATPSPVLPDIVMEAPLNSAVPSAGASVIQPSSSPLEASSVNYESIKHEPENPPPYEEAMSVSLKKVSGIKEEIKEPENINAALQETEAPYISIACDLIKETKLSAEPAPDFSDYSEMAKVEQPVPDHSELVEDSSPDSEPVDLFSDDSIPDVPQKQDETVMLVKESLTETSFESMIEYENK
Protocol: (§1) hNOGO (GST-human NOGO-A56) was immobilised to a CM5 chip by primary amine coupling using the Biacore Wizard program designed for targeted immobilisation levels. The CM5 sensor surface was activated by passing a solution of 50 mM N-hydroxy-succinimide (NHS) and 200 mM N-ethyl-N′-dimethylaminopropyl […] (EDC). Then hNOGO in sodium acetate buffer, pH5.0 or pH 4.5, was passed over the chip and immobilised. After immobilisation was complete any still activated esters were blocked by an injection of 1M ethanolamine hydrochloride, pH8.5.
(§2) The hNOGO chip was prepared as for kinetic analysis. Cell supernatants where taken directly from transient transfections of CHO—K1 cells. These were passed directly over the sensor surface and the interaction measured. A mock transfected cell supernatant was used for double referencing to remove any artefacts due to the tissue culture media. All runs were referenced against a blanked sensor surface (one that had been activated and blocked as described earlier but had no addition of ligand). Analysis of binding was carried out using the BIAevaluation kinetic analysis software version 4.1.

GST-human NOGO-A56 [2] = target: T1, GST-human NOGO-A56; assay: SPR (Biacore 3000), GST-human NOGO-A56 amine-coupled to CM5 chip, antibody as analyte; mean (SD) of four experiments
Protocol: (§3) The binding kinetics of the anti-NOGO monoclonal antibody (mAb) to recombinantly expressed human NOGO-A (GST-human NOGO-A56) was analysed using the Biacore3000 biosensor. The hNOGO-A chip was prepared as follows:
as §1
(§4) The anti-NOGO mAbs were diluted down in HBS-EP (10 mM HEPES, pH 7.4, 150 mM NaCl, 3 mM EDTA, and 0.005% P-20 surfactant) and binding studies were carried out at range of defined antibody concentrations. All runs were referenced against a blanked sensor surface (one that had been activated and blocked as described earlier but had no addition of ligand). Analysis of binding was carried out using the BIAevaluation kinetic analysis software version 4.1. Biacore analysis of other antibodies of the invention essentially followed the same protocol as described herein.

GST-human NOGO-A56 [3] = target: T1, GST-human NOGO-A56; assay: SPR (Biacore 3000), GST-human NOGO-A56 on CM5 chip, antibody as analyte; single experiment
Protocol: as §3, §1, §4

GST-human NOGO-A56 [4] = target: T1, GST-human NOGO-A56; assay: SPR (Biacore 3000), GST-human NOGO-A56 on CM5 chip, antibody as analyte; mean (SD) of two experiments
Protocol: as §3, §1, §4

GST-human NOGO-A56 [5] = target: T1, GST-human NOGO-A56; assay: SPR (Biacore 3000), GST-human NOGO-A56 on CM5 chip, antibody as analyte; single experiment; remark: listed apart in the source
Protocol: as §3, §1, §4

GST-human NOGO-A56 [6] = target: T1, GST-human NOGO-A56; assay: SPR off-rate ranking (Biacore), CHO-K1 transfection supernatant over GST-human NOGO-A56 chip; single experiment
Protocol: as §1, §2

GST-human NOGO-A56 [7] = target: T1, GST-human NOGO-A56; assay: SPR off-rate ranking (Biacore), CHO-K1 transfection supernatant over GST-human NOGO-A56 chip; mean (SD) of two experiments
Protocol: as §1, §2

Binder | koff (GST-human NOGO-A56 [1]) | Kd (GST-human NOGO-A56 [2]) | koff (GST-human NOGO-A56 [2]) | kon (GST-human NOGO-A56 [2]) | koff (GST-human NOGO-A56 [3]) | kon (GST-human NOGO-A56 [3]) | Kd (GST-human NOGO-A56 [3]) | koff (GST-human NOGO-A56 [6]) | further results
H1L11 (antibody, human IgG1, kappa, V domains shown, human gamma-1 mutated constant region, human kappa) VH: QVQLVQSGAEVKKPGASVKVSCKASGYTFTSYWMHWVRQAPGQGLEWMGNINPSNGGTNYNEKFKSRVTMTRDTSTSTVYMELSSLRSEDTAVYYCELGQGYWGQGTLVTVSS VL: DIVITQSPLSLPVTLGQPASISCRSSKSLLYKDGKTYLNWFQQRPGQSPQLLIYLMSTRASGVPDRFSGGGSGTDFTLKISRVEAEDVGVYYCQQLVEYPLTFGQGTKLEIKR | 0.0403 s⁻¹ | 18.6 nM | 0.0314 s⁻¹ | 1.73e+06 M⁻¹ s⁻¹ | 0.0284 s⁻¹ | 1.33e+06 M⁻¹ s⁻¹ | – | – | –
H6Lc (antibody, human IgG1, kappa, V domains shown, Humanised heavy chain H6 paired with chimeric light chain Lc; For the light chain start see the note on HcLc) VH: QVQLVQSGAEVKKPGASVKVSCKASGYTFTSYWMHWVRQAPGQGLEWIGNINPSNGGTNYNEKFKSRATMTRDTSTSTAYMELSSLRSEDTAVYYCELGQGYWGQGTLVTVSS VL: DIVITQDELSNPVTSGESVSISCRSSKSLLYKDGKTYLNWFLQRPGQSPQLLIYLMSTRASGVSDRFSGSGSGTDFTLEISRVKAEDVGVYYCQQLVEYPLTFGAGTKLELKR | – | – | – | – | – | – | – | – | Kd (GST-human NOGO-A56 [4]): 2.21 nM; koff (GST-human NOGO-A56 [4]): 0.00284 s⁻¹; kon (GST-human NOGO-A56 [4]): 2.17e+06 M⁻¹ s⁻¹
H6L13 (antibody, human IgG1, kappa, V domains shown, Humanised 2A10; human gamma-1 mutated constant region, human kappa; also called H6L13 FL) VH: QVQLVQSGAEVKKPGASVKVSCKASGYTFTSYWMHWVRQAPGQGLEWIGNINPSNGGTNYNEKFKSRATMTRDTSTSTAYMELSSLRSEDTAVYYCELGQGYWGQGTLVTVSS VL: DIVMTQSPLSLPVTLGQPASISCRSSKSLLYKDGKTYLNWFQQRPGQSPQLLIYLMSTRASGVPDRFSGGGSGTDFTLKISRVEAEDVGVYYCQQLVEYPLTFGQGTKLEIKR | 0.0173 s⁻¹ | 7.68 nM | 0.0137 s⁻¹ | 1.82e+06 M⁻¹ s⁻¹ | 0.013 s⁻¹ | 1.77e+06 M⁻¹ s⁻¹ | 7.3 nM | – | Kd (GST-human NOGO-A56 [5]): 7.9 nM; koff (GST-human NOGO-A56 [5]): 0.0233 s⁻¹; kon (GST-human NOGO-A56 [5]): 2.95e+06 M⁻¹ s⁻¹
H14L18 (antibody, human IgG1, kappa, V domains shown, Humanised 2A10; human gamma-1 mutated constant region, human kappa) VH: QVQLVQSGAEVVKPGASVKLSCKASGYTFTSYWMHWVKQAPGQGLEWIGNINPSNGGTNYNEKFKSRATLTRDTSTSTAYMELSSLRSEDTAVYYCELGQGYWGQGTLVTVSS VL: DIVMTQDPLSNPVTLGQPVSISCRSSKSLLYKDGKTYLNWFLQRPGQSPQLLIYLMSTRASGVSDRFSGSGSGTDFTLKISRVEAEDVGVYYCQQLVEYPLTFGQGTKLEIKR | – | – | – | – | 0.00869 s⁻¹ | 2.41e+06 M⁻¹ s⁻¹ | 3.6 nM | 0.00835 s⁻¹ | –
H16L13 (antibody, human IgG1, kappa, Humanised 2A10; tested as CHO-K1 transfection supernatant; Human gamma-1 mutated constant region, human kappa) heavy: not shown light: DIVMTQSPLSLPVTLGQPASISCRSSKSLLYKDGKTYLNWFQQRPGQSPQLLIYLMSTRASGVPDRFSGGGSGTDFTLKISRVEAEDVGVYYCQQLVEYPLTFGQGTKLEIKRTVAAPSVFIFPPSDEQLKSGTASVVCLLNNFYPREAKVQWKVDNALQSGNSQESVTEQDSKDSTYSLSSTLTLSKADYEKHKVYACEVTHQGLSSPVTKSFNRGEC | – | – | – | – | – | – | – | 0.00907 s⁻¹ | –
H16L18 (antibody, human IgG1, kappa, V domains shown, Humanised 2A10; human gamma-1 mutated constant region, human kappa; also called H16L18 FL) VH: QVQLVQSGAEVKKPGASVKVSCKASGYTFTSYWMHWVKQRPGQGLEWIGNINPSNGGTNYNEKFKSKATLTVDKSTSTAYMELSSLRSEDTAVYYCELGQGYWGQGTLVTVSS VL: DIVMTQDPLSNPVTLGQPVSISCRSSKSLLYKDGKTYLNWFLQRPGQSPQLLIYLMSTRASGVSDRFSGSGSGTDFTLKISRVEAEDVGVYYCQQLVEYPLTFGQGTKLEIKR | 0.00609 s⁻¹ | 1.33 nM | 0.00552 s⁻¹ | 4.18e+06 M⁻¹ s⁻¹ | – | – | – | – | –
H18L13 (antibody, human IgG1, kappa, V domains shown, Humanised 2A10; tested as CHO-K1 transfection supernatant; Human gamma-1 mutated constant region, human kappa) VH: QVQLVQSGAEVVKPGASVKLSCKASGYTFTSYWMHWVKQRPGQGLEWIGNINPSNGGTNYNEKFKSKATLTVDKSSSTAYMELSSLRSEDSAVYYCELGQGYWGQGTLVTVSS VL: DIVMTQSPLSLPVTLGQPASISCRSSKSLLYKDGKTYLNWFQQRPGQSPQLLIYLMSTRASGVPDRFSGGGSGTDFTLKISRVEAEDVGVYYCQQLVEYPLTFGQGTKLEIKR | – | – | – | – | – | – | – | 0.00907 s⁻¹ | –
H17L13 (antibody, human IgG1, kappa, Humanised 2A10; tested as CHO-K1 transfection supernatant; Human gamma-1 mutated constant region, human kappa) heavy: not shown light: DIVMTQSPLSLPVTLGQPASISCRSSKSLLYKDGKTYLNWFQQRPGQSPQLLIYLMSTRASGVPDRFSGGGSGTDFTLKISRVEAEDVGVYYCQQLVEYPLTFGQGTKLEIKRTVAAPSVFIFPPSDEQLKSGTASVVCLLNNFYPREAKVQWKVDNALQSGNSQESVTEQDSKDSTYSLSSTLTLSKADYEKHKVYACEVTHQGLSSPVTKSFNRGEC | – | – | – | – | – | – | – | 0.00931 s⁻¹ | –
H14L16 (antibody, human IgG1, kappa, V domains shown, Humanised 2A10; human gamma-1 mutated constant region, human kappa) VH: QVQLVQSGAEVVKPGASVKLSCKASGYTFTSYWMHWVKQAPGQGLEWIGNINPSNGGTNYNEKFKSRATLTRDTSTSTAYMELSSLRSEDTAVYYCELGQGYWGQGTLVTVSS VL: DIVMTQSPLSNPVTLGQPVSISCRSSKSLLYKDGKTYLNWFLQRPGQSPQLLIYLMSTRASGVPDRFSGGGSGTDFTLKISRVEAEDVGVYYCQQLVEYPLTFGQGTKLEIKR | – | – | – | – | 0.00739 s⁻¹ | 2.05e+06 M⁻¹ s⁻¹ | 3.6 nM | 0.0089 s⁻¹ | –
H16L16 (antibody, human IgG1, kappa, Humanised 2A10; human gamma-1 mutated constant region, human kappa; also called H16L16 FL) heavy: not shown light: DIVMTQSPLSNPVTLGQPVSISCRSSKSLLYKDGKTYLNWFLQRPGQSPQLLIYLMSTRASGVPDRFSGGGSGTDFTLKISRVEAEDVGVYYCQQLVEYPLTFGQGTKLEIKRTVAAPSVFIFPPSDEQLKSGTASVVCLLNNFYPREAKVQWKVDNALQSGNSQESVTEQDSKDSTYSLSSTLTLSKADYEKHKVYACEVTHQGLSSPVTKSFNRGEC | 0.00664 s⁻¹ | 1.26 nM | 0.00554 s⁻¹ | 4.37e+06 M⁻¹ s⁻¹ | 0.00569 s⁻¹ | 5.47e+06 M⁻¹ s⁻¹ | 1 nM | – | –
H18L16 (antibody, human IgG1, kappa, V domains shown, Humanised 2A10; human gamma-1 mutated constant region, human kappa; also called H18L16 FL) VH: QVQLVQSGAEVVKPGASVKLSCKASGYTFTSYWMHWVKQRPGQGLEWIGNINPSNGGTNYNEKFKSKATLTVDKSSSTAYMELSSLRSEDSAVYYCELGQGYWGQGTLVTVSS VL: DIVMTQSPLSNPVTLGQPVSISCRSSKSLLYKDGKTYLNWFLQRPGQSPQLLIYLMSTRASGVPDRFSGGGSGTDFTLKISRVEAEDVGVYYCQQLVEYPLTFGQGTKLEIKR | – | 1.62 nM | 0.00586 s⁻¹ | 3.64e+06 M⁻¹ s⁻¹ | – | – | – | – | koff (GST-human NOGO-A56 [7]): 0.00687 s⁻¹
H18L18 (antibody, human IgG1, kappa, V domains shown, Humanised 2A10; tested as CHO-K1 transfection supernatant; Human gamma-1 mutated constant region, human kappa) VH: QVQLVQSGAEVVKPGASVKLSCKASGYTFTSYWMHWVKQRPGQGLEWIGNINPSNGGTNYNEKFKSKATLTVDKSSSTAYMELSSLRSEDSAVYYCELGQGYWGQGTLVTVSS VL: DIVMTQDPLSNPVTLGQPVSISCRSSKSLLYKDGKTYLNWFLQRPGQSPQLLIYLMSTRASGVSDRFSGSGSGTDFTLKISRVEAEDVGVYYCQQLVEYPLTFGQGTKLEIKR | – | – | – | – | – | – | – | 0.0058 s⁻¹ | –
